Measured values: patent publication US20240190999A1

Tests used:
[1] = target: biotinylated cynomolgus 4-1BB (bio.c4-1BB) (cynomolgus monkey) (UniProt A9YYE7); assay: SPR (ProteOn XPR36); end of the group's range, tied to #44 by Table 15
[2] = target: biotinylated cynomolgus 4-1BB (bio.c4-1BB) (cynomolgus monkey) (UniProt A9YYE7); assay: SPR (ProteOn XPR36), biotinylated c4-1BB immobilised on GLC chip, construct as analyte
[3] = target: biotinylated cynomolgus 4-1BB (bio.c4-1BB) (cynomolgus monkey) (UniProt A9YYE7); assay: SPR (ProteOn XPR36), bio.c4-1BB on NLC chip, MpA analyte; mean of triplicate
[4] = target: biotinylated human 4-1BB-Fc (bio.h4-1BB-Fc) (human) (UniProt Q07011); assay: SPR (ProteOn XPR36), sequential injections; 100 nM MpA on 360 RU bio.h4-1BB-Fc on NLC chip
Sequence of biotinylated human 4-1BB-Fc (bio.h4-1BB-Fc) (human) (Q07011 24-186 limits assumed): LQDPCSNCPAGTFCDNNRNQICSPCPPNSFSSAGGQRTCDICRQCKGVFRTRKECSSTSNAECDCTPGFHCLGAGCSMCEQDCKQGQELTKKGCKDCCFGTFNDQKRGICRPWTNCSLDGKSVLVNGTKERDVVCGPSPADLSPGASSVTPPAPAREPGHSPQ

[5] = target: biotinylated cynomolgus 4-1BB (bio.c4-1BB) (cynomolgus monkey) (UniProt A9YYE7); assay: SPR (ProteOn XPR36), bio.c4-1BB on NLC chip, MpA analyte; mean of triplicate; apparent affinity (bivalent)
[6] = target: biotinylated cynomolgus 4-1BB (bio.c4-1BB) (cynomolgus monkey) (UniProt A9YYE7); assay: SPR (ProteOn XPR36); end of the group's range, tied to #47 by Table 15
[7] = target: biotinylated cynomolgus 4-1BB (bio.c4-1BB) (cynomolgus monkey) (UniProt A9YYE7); assay: SPR (ProteOn XPR36); told of the group, largest difference is that of #47 by Table 15

Sequence of biotinylated cynomolgus 4-1BB (bio.c4-1BB) (cynomolgus monkey) (A9YYE7 entry or part of it): as the sequence (Q07011 24-186 limits assumed) above, with P4L, N19S, R50K, T66I, P67S, F69Y, G75E, V149A counted along it

B1: bispecific construct #44 (designed binder)
chain: MRGSHHHHHHGSDLGEKLLVAALYGQDDEVRILLAAGADVNAKDQWGLTPLHKAALQGHLEIVEVLLKAGADVNAKDERGHTPLHWAARFGHLEIVEVLLKAGADVNAQDQKGYTPADLAALWGHEDIAEVLQKAAGSPTPTPTTPTPTPTTPTPTPTGSDLGQKLLKAAQEGQDDEVRELLKAGADVNAKDLRGITPLHVAAWQGHLEIVEVLLKAGADVNAKDSKGETPLHLAAFRGHLEIVEVLLKAGADVNAQDQQGETPADLAALAGHVDIAEVLQKLN
Work on B1 yielded a Kd [1] of 1.1 to 2.9 nM and a Kd [2] of 1.12 nM.

B2: bispecific construct #49 (designed binder)
chain: MRGSHHHHHHGSDLGEKLLVAALYGQDDEVRILLAAGADVNAKDQWGLTPLHKAALQGHLEIVEVLLKAGADVNAKDERGHTPLHWAARFGHLEIVEVLLKAGADVNAQDQKGYTPADLAALWGHEDIAEVLQKAAGSPTPTPTTPTPTPTTPTPTPTGSDLGKKLLVAANVGQDDEVRILLAAGADVNAKDYHGYTPLHHAATYGHLEIVEVLLKAGADVNAKDQTGLTPLHLAAAKGHLEIVEVLLKAGADVNAQDHHGYTPADLAAFVGHEDIAVVLQKLN
In the case of B2, the Kd [2] is reported as 1.48 nM.

B3: Multispecific binding protein A (MpA) (designed binder)
chain: GSDLGKKLLEAARAGQDDEVRELLKAGADVNAKDYFSHTPLHLAARNGHLKIVEVLLKAGADVNAKDFAGKTPLHLAAADGHLEIVEVLLKAGADVNAQDIFGKTPADIAADAGHEDIAEVLQKAAGSPTPTPTTPTPTPTTPTPTPTGSDLGKKLLEAARAGQDDEVRELLKAGADVNAKDVLGWTPLHLAAFEGHLEIVEVLLKAGADVNAKDKKGWTPLQLAARTGHLEIVEVLLKAGADVNAKDHIGATPLHLAAWQGHPEIVEVLLKAGADVNAQDKSGKTPADLAADAGHEDIAEVLQKAAGSPTPTPTTPTPTPTTPTPTPTGSDLGQKLLKAAQEGQDDEVRELLKAGADVNAKDLRGITPLHVAAWQGHLEIVEVLLKAGADVNAKDSKGETPLHLAAFRGHLEIVEVLLKAGADVNAQDQQGETPADLAALAGHVDIAEVLQKAAGSPTPTPTTPTPTPTTPTPTPTGSDLGQKLLKAAQEGQDDEVRELLKAGADVNAKDLRGITPLHVAAWQGHLEIVEVLLKAGADVNAKDSKGETPLHLAAFRGHLEIVEVLLKAGADVNAQDQQGETPADLAALAGHVDIAEVLQKAAGSPTPTPTTPTPTPTTPTPTPTGSDLGKKLLEAARAGQDDEVRELLKAGADVNAKDYFSHTPLHLAARNGHLKIVEVLLKAGADVNAKDFAGKTPLHLAAADGHLEIVEVLLKAGADVNAQDIFGKTPADIAADAGHEDIAEVLQKAA
For B3, the koff [3] was 2.7e-05 s⁻¹, the kon [3] was 2.1e+06 M⁻¹ s⁻¹ and the Binding stoichiometry [4] was 0.7. The Kd [5] was 0.014 nM.

B4: bispecific construct #47 (designed binder)
chain: MRGSHHHHHHGSDLGEKLLVAALYGQDDEVRILLAAGADVNAKDQWGLTPLHKAALQGHLEIVEVLLKAGADVNAKDERGHTPLHWAARFGHLEIVEVLLKAGADVNAQDQKGYTPADLAALWGHEDIAEVLQKAAGSPTPTPTTPTPTPTTPTPTPTGSDLGKKLLEAARAGQDDEVRELLKAGADVNAKDTYGETPLHLAAWKGHLEIVEVLLKAGADVNAKDSIGITPLHVAAHHGHLEIVEVLLKAGADVNAKDKWGRTPLHLAALLGHLEIAEVLLKAGADVNAQDKSGKTPADLAADAGHDDIAEVLQKLN
For B4, the Kd [6] was 1.1 to 2.9 nM, the Kd [2] was 2.9 nM and the fold difference in binding affinity as compared to human 4-1BB [7] was under 4 fold.
